Assay results published in patent US20120283168A1.
Square brackets hold non-standard residues; d marks the D form. Oic = O=C(O)[C@@H]1C[C@@H]2CCCC[C@@H]2N1; Tic = O=C(O)[C@@H]1Cc2ccccc2CN1; Dab = NCC[C@H](N)C(=O)O; Ac4c = NC1(C(=O)O)CCC1; Deg = CCC(N)(CC)C(=O)O; Aib = CC(C)(N)C(=O)O

Target: human CCR10 (human) (UniProt P46092)
Assay: cell-based or functional assay

human CCR10 (human), sequence (P46092 whole entry): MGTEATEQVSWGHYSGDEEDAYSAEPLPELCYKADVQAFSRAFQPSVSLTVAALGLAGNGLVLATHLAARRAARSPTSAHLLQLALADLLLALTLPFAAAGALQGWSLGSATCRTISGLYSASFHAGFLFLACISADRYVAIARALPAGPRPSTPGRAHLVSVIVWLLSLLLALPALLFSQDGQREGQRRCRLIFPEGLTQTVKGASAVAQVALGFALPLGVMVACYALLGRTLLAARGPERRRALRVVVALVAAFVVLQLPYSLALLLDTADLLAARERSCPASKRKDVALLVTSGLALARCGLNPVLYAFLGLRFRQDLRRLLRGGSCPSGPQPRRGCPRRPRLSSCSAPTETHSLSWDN

Row | Substance | IC50 (nM) Calcium Flux Assay [nM] | IC50 (nM) Chemotaxis Assay [nM]
1 | cyclo(-Trp-Cyp-Trp-Gln(iPr)-^DPro-Oic-) (peptide) | 25.1 | 1
2 | cyclo(-Trp-Cyp-Trp-Gln-^DPro-Oic-) (peptide) | 44.3 | 
3 | cyclo(-Trp-Cyp-Trp-Lys(4Oxa)-^DPro-Oic-) (peptide) | 107 | 5.9
4 | cyclo(-Trp-Cyp-Trp-Lys((5R)OH)-^DPro-Oic-) (peptide) | 333 | 7
5 | cyclo(-Trp-Cyp-Trp-Lys(Ac)-^DPro-Oic-) (peptide) | 28 | 2.3
6 | cyclo(-Trp-Cyp-Trp-Lys(Bz)-^DPro-Oic-) (peptide) | 3 | 2.7
7 | cyclo(-Trp-Cyp-Trp-Lys(Me)-^DPro-Oic-) (peptide) |  | 4.4
8 | cyclo(-Trp-Cyp-Trp-Lys(Nic)-^DPro-Oic-) (peptide) | 49.5 | 8.8
9 | cyclo(-Trp-Cyp-Trp-Met(O2)-^DPro-Oic-) (peptide) | 4.8 | 1.2
10 | cyclo(-Trp-Cyp-Trp-Ser(Me)-^DPro-Oic-) (peptide) | 46.4 | 10.1
11 | cyclo(-Trp-Cyp-Trp-Ser-^DPip-Oic-) (peptide) | 6.9 | 9.6
12 | cyclo(-Trp-Cyp-Trp-Ser-^DPro-Hyp(Bn)-) (peptide) | 12.6 | 35.4
13 | cyclo(-Trp-Cyp-Trp-Ser-^DPro-Oic-) (peptide) | 61.6 | 1.4
14 | cyclo(-Trp-Cyp-Trp-Thr-^DPro-Oic-) (peptide) | 20.4 | 5.4
15 | cyclo(-Trp-Cyp-Trp-alloThr-^DPro-Oic-) (peptide) | 11.6 | 1.2
16 | cyclo(-Trp-Cyp-Trp-hArg-^DPro-Oic-) (peptide) | 25 | 3.7
17 | cyclo(-Trp-Cyp-Trp-hCys-^DPro-Oic-) (peptide) | 54.9 | 8.7
18 | cyclo(-Trp-Cyp-Trp-hSer(Me)-^DPro-Oic-) (peptide) | 12 | 1.8
19 | cyclo(-Trp-Cyp-Tyr(Me)-Dab-^DPro-Oic-) (peptide) | 214 | 3.8
20 | cyclo(-Trp-Cyp-Tyr(Ph)-Dab-^DPro-Oic-) (peptide) | 602 | 208
21 | cyclo(-Trp-^DLAtc-Trp-Dab-^DPro-Oic-) (peptide) | 608 | 
22 | cyclo(-Tyr(4MeOCOBn)-Cyp-Trp-Dab-^DPro-Oic-) (peptide) | 16.7 | 2.3
23 | cyclo(-Tyr(40HPh)-Cyp-Trp-Dab-^DPro-Oic-) (peptide) | 48.9 | 6.6
24 | cyclo(-Tyr(Ph)-Cyp-Trp-Dab-^DPro-Oic-) (peptide) | 1.1 | 1.7
25 | cyclo(-hTyr-Cyp-Trp-Dab-^DPro-Oic-) (peptide) | 516 | 13
26 | cyclo(W[Ac4c]W[Dab][dP][Oic]) | 353 | 1.7
27 | cyclo(W[Aib]WR[dP][Tic]) | 226 | 94
28 | cyclo(W[Aib]W[Dab][dP][Tic]) | 200 | 21.6
29 | cyclo(W[Deg]W[Dab][dP][Oic]) | 146 | 76.1
